This is an account of results in patent US20200239541A1 (XYPHOS BIOSCIENCES, published 2020).

Where a chain is given by its changes, count along the chain named. Names may count otherwise.

B1: His-avitag natural NKG2D ectodomain, biotinylated (receptor)
chain: EPHHHHHHGLNDIFEAQKIEWHENSLFNQEVQIPLTESYCGPCPKNWICYKNNCYQFFDESKNWYESQASCMSQNASLLKVYSKEDQDLLKLVKSYHWMGLVHIPTNGSWQWEDGSILSPNLLTIIEMQKGDCALYASSFKGYIENCSTPNTYICMQRTV
notes: also called natural form of the ectodomain of NKG2D
B2: Y152A mutant NKG2D ectodomain (His-avitag, biotinylated) (receptor)
chain: B1 chain with Y96A
notes: also called Y152A non-natural NKG2D receptor; not shown: N-terminal His-avitag
B3: double Y152A plus Y199A mutant NKG2D ectodomain (His-avitag, biotinylated) (receptor)
chain: B1 chain with Y96A, Y143A
notes: not shown: N-terminal His-avitag
B4: Y199A mutant NKG2D ectodomain (His-avitag, biotinylated) (receptor)
chain: B1 chain with Y143A
notes: as for B3
B5: α1-α2 variant 16 (His-tagged, with attached heterologous polypeptide) (ligand)
chain: EPHSLRYNLTVLSWDGSVQSGFLTEVHLDGQPFLRCDRQKCRAKPQGQWAEDVLGNKTWDRETRDLTGWGKDLRMTLAHIKDQKEGLHSLQEIRVCEIHEDNSTRSSQHFYYDGELFLSQNLETLEWTMPQSSRAQTLAMNVRNFLKEDAMETDTHYHAMRADCLQELRRYLKSGVVLRRTVPPMVQVTRSEASGGSGDRVTITCRASQDVSTAVAWYQQKPGKAPKLLIYSASFLYSGVPSRFSGSGSGTDFTLTISSLQPEDFATYYCQQSYTTPPTFGQGTKVEIKGGSSRSSSSGGGGSGGGGEVQLVESGGGLVQPGGSLRLSCAASGFTFTSTGISWVRQAPGKGLEWVGRIYPTNGSTNYADSVKGRFTISADTSKNTAYLQMNSLRAEDTAVYYCARTYGIYDLYVDYTEYVMDYWGQGTLVTVSSGGSSRSSSSGGGGSGGGGDIQMTQSPSSLSASGGSGQITVTCRASGFYPWNITLSWRQDGVSLSHDTQQWGDVLPDGQGTYQTWVATRISQGEEQRFTCYMEHSGQHSTHPVPSGKGSHHHHHH
B6: α1-α2 variant 17 (His-tagged, with attached heterologous polypeptide) (ligand)
chain: B5 chain with G68L
B7: α1-α2 variant 18 (His-tagged, with attached heterologous polypeptide) (ligand)
chain: B5 chain with S20P, G68L

One assay deals with T1, ULBP4-Fc (R&D Systems) (human, UniProt Q8TD07 31-225).
T1 construct: not shown: Fc of the bought reagent
T1 sequence (looked up): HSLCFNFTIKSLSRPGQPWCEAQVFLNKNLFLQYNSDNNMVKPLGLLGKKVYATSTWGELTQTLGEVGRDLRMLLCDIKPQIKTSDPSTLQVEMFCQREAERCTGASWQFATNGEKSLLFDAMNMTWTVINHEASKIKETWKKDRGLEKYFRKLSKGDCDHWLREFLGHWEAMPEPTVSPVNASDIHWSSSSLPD
As to the kind of experiment: ELISA, ligand-Fc coated, biotinylated NKG2D titrated. The procedure:
(§1) In addition to purifying the above 3 Fc-fusion proteins NKG2D ligand-Fc fusion proteins MICB-Fc, ULBP1-Fc, ULBP2-Fc, ULBP3-Fc, and ULBP4-Fc were purchased from R&D Systems, Inc. (Minneapolis, Minn.). Binding of the different α1-α2 domain-Fc fusions to both natural and non-natural NKG2D ectodomain proteins was analyzed using a plate-based ELISA method. All of the natural and non-natural α1-α2 domain-Fc fusions were coated overnight at 4° C. onto separate wells of Maxisorp 96 well plates using a coating concentration of 2 μg/ml in phosphate-buffered saline (PBS). The plates were washed 3-times in PBS/0.05% Tween20 at 20-22° C., and blocked with 0.5% bovine serum albumin for 2 hours. The biotinylated natural and non-natural NKG2D receptor proteins were titrated against the plate-bound NKG2D ligands for 2 hours at 20-22° C., washed 3 times with PBS/0.05% Tween20 at 20-22° C., and the bound NKG2D proteins subsequently detected using a streptavidin-HRP secondary detection step and developed with 1-Step Ultra TMB Elisa.
As to B1, the binding result is given as “binds”.
Consider B2, for which the binding result is recorded as “no binding”.
For B3, the binding result is reported as “no binding”.
Take B4: the binding result is listed as “no binding”.

For the next assay, the target named is T2, ULBP3-Fc (R&D Systems) (human, UniProt Q9BZM4 30-217).
T2 construct: not shown: Fc of the bought reagent
T2 sequence (looked up): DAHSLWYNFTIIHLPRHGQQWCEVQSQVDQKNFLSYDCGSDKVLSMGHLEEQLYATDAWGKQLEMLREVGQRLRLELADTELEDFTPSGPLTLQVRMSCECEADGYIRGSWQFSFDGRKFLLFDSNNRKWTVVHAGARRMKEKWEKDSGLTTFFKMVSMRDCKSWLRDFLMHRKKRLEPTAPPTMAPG
The description is as above. The procedure: as §1
Regarding B1, the binding result is “binds”.
In the case of B2, the binding result is “no binding”.
In the case of B3, the binding result is “no binding”.
For B4, the binding result is “no binding”.

The target of a further assay is T3, ULBP2-Fc (R&D Systems) (human, UniProt Q9BZM5 26-217).
T3 construct: not shown: Fc of the bought reagent
T3 sequence (looked up): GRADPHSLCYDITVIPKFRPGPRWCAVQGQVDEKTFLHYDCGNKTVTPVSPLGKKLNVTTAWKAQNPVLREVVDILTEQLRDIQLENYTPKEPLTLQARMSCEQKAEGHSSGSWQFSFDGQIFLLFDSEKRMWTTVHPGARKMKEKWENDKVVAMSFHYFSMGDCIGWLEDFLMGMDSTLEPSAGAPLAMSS
The description is as above. The procedure: as §1
As for B1, the binding result is on record as “binds”.
B2: the binding result is “no binding”.
As to B3, the binding result is “no binding”.
In the case of B4, the binding result is recorded as “no binding”.

A further assay has as its target T4, MICB-Fc (R&D Systems) (human, UniProt Q29980 23-298).
T4 construct: not shown: Fc of the bought reagent
T4 sequence (looked up): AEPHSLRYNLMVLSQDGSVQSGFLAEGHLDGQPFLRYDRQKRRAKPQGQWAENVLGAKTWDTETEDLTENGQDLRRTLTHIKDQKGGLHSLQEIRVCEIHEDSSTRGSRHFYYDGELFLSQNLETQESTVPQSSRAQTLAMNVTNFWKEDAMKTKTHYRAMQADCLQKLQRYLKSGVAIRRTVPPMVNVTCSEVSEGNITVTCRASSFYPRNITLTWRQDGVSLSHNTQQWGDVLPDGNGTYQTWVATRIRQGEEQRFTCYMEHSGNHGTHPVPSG
The assay is described as above. The procedure:
as §1
Consider B1, for which the binding result is given as “binds”.
For B2, the binding result is given as “no binding”.
Same read-out and setting: for B3 the value was “no binding”.
On the same count and under the same terms, the same measure for B4: “no binding”.

For a further assay, the target named is T5, ULBP1-Fc (R&D Systems) (human, UniProt Q9BZM6 26-216).
T5 construct: not shown: Fc of the bought reagent
T5 sequence (looked up): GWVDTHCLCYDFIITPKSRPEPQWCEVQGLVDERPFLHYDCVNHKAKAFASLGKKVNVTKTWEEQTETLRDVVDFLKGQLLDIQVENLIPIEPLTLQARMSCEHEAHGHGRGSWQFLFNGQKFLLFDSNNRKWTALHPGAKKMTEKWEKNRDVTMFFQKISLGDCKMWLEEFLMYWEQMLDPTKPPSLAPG
Described as above. The procedure:
as §1
As for B1, the binding result was “binds”.
On to B2, for which the binding result is on record as “no binding”.
Consider B3, for which the binding result is “no binding”.
For the molecule B4, the binding result is listed as “no binding”.

For another assay, the target named is T6, biotinylated human NKG2D (Example 1) (human, UniProt P26718 78-216).
T6 construct: also called recombinant biotinylated NKG2D
T6 sequence (looked up): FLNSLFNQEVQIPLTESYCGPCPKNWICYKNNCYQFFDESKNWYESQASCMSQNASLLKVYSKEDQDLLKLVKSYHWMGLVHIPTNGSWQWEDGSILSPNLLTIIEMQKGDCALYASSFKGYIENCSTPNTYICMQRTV
Put plainly: BLI (Octet), biotinylated human NKG2D coated, 100 nM analyte.
The koff is the first-order rate constant of dissociation. A low value points to slow dissociation. Broadly, the kon is a measure of how fast the partners come together. Lower therefore signals slow association. For the molecule B5, the koff came to 9e-05 s⁻¹ and the kon worked out at 200000 M⁻¹ s⁻¹.
Molecule B6 gave a koff of 7e-05 s⁻¹ and an on-rate constant (kon) of 200000 M⁻¹ s⁻¹.
Turning to B7, the off-rate (koff) came to 9e-05 s⁻¹ and the on-rate (kon) was found to be 230000 M⁻¹ s⁻¹.

The next assay concerns the target T6, biotinylated human NKG2D (Example 1). Put plainly: BLI (Octet), Kd = kOFF/kON.
The term Kd denotes the equilibrium constant for the complex coming apart. Take B5: the dissociation constant Kd is 0.5 nM.
As to B6, binding was characterised by a dissociation constant (Kd) of 0.4 nM.
The same measure, in the same setting: the same measure for B7: 0.4 nM.

For a further assay, the target named is T7, human NKG2D-Fc (human, UniProt P26718 78-216).
T7 construct: also called natural NKG2D-Fc; not shown: Fc
T7 sequence (looked up): T6 sequence (looked up)
As to the kind of experiment: competition ELISA vs coated WT sMICA, 2 nM human NKG2D-Fc. The source says: (§2) To the NKG2DLs in the above example, we directly attached heterologous molecules such as a polypeptide to each of these 4 modified α1-α2 NKG2DLs using a linker peptide. Four His-tagged proteins (SEQ ID NOs.: 25-28) consisting of modified NKG2DLs with attached heterologous molecules were expressed in insect cells and purified to characterize their NKG2D binding affinities and kinetic binding parameters. Using a competitive binding ELISA, we determined the relative NKG2D binding affinities of the 4 modified α1-α2 variants.
Broadly, the IC50 is the concentration that inhibits the measured activity by half. A higher IC50 goes with weaker potency in that assay. In turn, B5 yielded an IC50 of 0.7 nM.
Still for that read-out and setting: the same measure for B6: 0.6 nM; for B7: 0.5 nM.

A further assay deals with T6, biotinylated human NKG2D (Example 1). As to the kind of experiment: BLI (Octet).
For the molecule B5, the “fold affinity increase relative to WT α1-α2” value was about 30 fold and the “fold reduction in off-rate relative to WT” value turned out to be 18 fold.
Take B6: the “fold affinity increase relative to WT α1-α2” value was about 30 fold and the “fold reduction in off-rate relative to WT” value was determined as 18 fold.
Take B7: the “fold affinity increase relative to WT α1-α2” value is about 30 fold and the “fold reduction in off-rate relative to WT” value was 18 fold.

The target of a further assay is T7, human NKG2D-Fc. As to the kind of experiment: competition ELISA vs coated WT sMICA.
Description: as §2
On the technique in general: ELISA stands for enzyme-linked immunosorbent assay.
With B5, the “fold better binding than WT NKG2DL” value is 27 fold.
On to B6, for which the “fold better binding than WT NKG2DL” value is 32 fold.
For the molecule B7, the “fold better binding than WT NKG2DL” value was found to be 38 fold.

Another assay deals with T8, NKG2D on the human NK cell line NKL (human, UniProt P26718 1-216).
T8 sequence (looked up): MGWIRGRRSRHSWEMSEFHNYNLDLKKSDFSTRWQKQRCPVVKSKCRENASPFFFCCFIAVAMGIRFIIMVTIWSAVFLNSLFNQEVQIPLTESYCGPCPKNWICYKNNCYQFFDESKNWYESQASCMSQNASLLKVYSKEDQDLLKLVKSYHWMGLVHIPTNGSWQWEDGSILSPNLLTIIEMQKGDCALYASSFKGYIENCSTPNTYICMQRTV
As to the kind of experiment: cell-based or functional assay.
As to B5, the “NKL cell-mediated lysis of FGFR3-expressing P815 cells (calcein release)” value is about 15 fold.
In the case of B6, the “NKL cell-mediated lysis of FGFR3-expressing P815 cells (calcein release)” value was about 15 fold.
The same measure, in the same setting: the same measure for B7: about 15 fold.
